Assay results: the RNAGym collection of RNA variant scans (doi:10.1073/pnas.2313332121)

B1: TPR t1 (parent)
chain: GACCAAUCUGCCCUCAGAGCUCGAGAACAUCUUCGGAUGCAGAGGAGGCAGGCUUCGGUGGCGCGAUAGCGCCAACGUCCUCAACCUCCAAUGCAUCCCACCACAUGAUGAUGCCUGAAGAGCCUUGGUUUUUUG

Variants of: B1
Assay: polymerase ribozyme fitness, log enrichment relative to wild type (log ratio); higher = more active; in vitro selection for triplet polymerase activity
How it was run: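 Fitness is a logarithmic measure of how a genotype enriched relative to the wild type, with replicate averages weighted by inverse variance. The logarithm uses base 2, and enrichment came from Illumina sequencing of input and output libraries. Those libraries were PCR-built, transcribed mutants of each subunit of a heterodimeric triplet polymerase ribozyme, passed through one triplicate in vitro selection round that included frozen incubation at −7 °C, gel excision of extended constructs and streptavidin-bead capture. Genotypes were kept only if they had ≥10 input reads and ≥1 read per output.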
In the case of C72U A74U, the “polymerase ribozyme fitness (log ratio)” value is reported as -1.23.
In the case of C40A A108G A119G G122U, the “polymerase ribozyme fitness (log ratio)” value is reported as -2.47.
For A16U G23A G60A A111G G122U, the “polymerase ribozyme fitness (log ratio)” value was -7.12.
In the case of C62U G128U, the “polymerase ribozyme fitness (log ratio)” value is reported as -1.78.
In the case of C12U A41U A46C G48A C72U C88A C102U C114G C115U, the “polymerase ribozyme fitness (log ratio)” value is reported as -8.1.
For A46U G120A, the “polymerase ribozyme fitness (log ratio)” value was -0.14.
With C40U C49A A50G C62U A105G the “polymerase ribozyme fitness (log ratio)” value was -4.71.
In the case of U38G U112C, the “polymerase ribozyme fitness (log ratio)” value is reported as 0.772.
For U7G C31G U38A G69A C80U C101G G120A, the “polymerase ribozyme fitness (log ratio)” value was -7.18.
In the case of C15U G117U G120A, the “polymerase ribozyme fitness (log ratio)” value is reported as -1.56.
For C11U A18U, the “polymerase ribozyme fitness (log ratio)” value was -1.98.
With C13U G71U C79G U81A the “polymerase ribozyme fitness (log ratio)” value was -3.02.
With A37U C56A the “polymerase ribozyme fitness (log ratio)” value was -1.32.
With C34A C49G C62G A121G the “polymerase ribozyme fitness (log ratio)” value was -5.41.
In the case of G10C C11U C94G, the “polymerase ribozyme fitness (log ratio)” value is reported as -0.146.
For A18U U112A, the “polymerase ribozyme fitness (log ratio)” value was -1.42.
In the case of C8G A41G G58C A83G G110U A121G, the “polymerase ribozyme fitness (log ratio)” value is reported as -4.41.
For C20U C73A A95U U106A G122A, the “polymerase ribozyme fitness (log ratio)” value was -4.57.
With U87G C104U G117A the “polymerase ribozyme fitness (log ratio)” value was -3.2.
For A27U U87G G122A, the “polymerase ribozyme fitness (log ratio)” value was -3.02.
In the case of C70U G93U, the “polymerase ribozyme fitness (log ratio)” value is reported as -1.7.
In the case of A43G G117U, the “polymerase ribozyme fitness (log ratio)” value is reported as -4.21.
For C72G C101A U125G, the “polymerase ribozyme fitness (log ratio)” value was -1.8.
With G47A U78C G113U the “polymerase ribozyme fitness (log ratio)” value was -4.27.
With C3U G44U C73G U125A the “polymerase ribozyme fitness (log ratio)” value was -2.29.
With C56U G120C the “polymerase ribozyme fitness (log ratio)” value was 0.793.
With G113U U132A the “polymerase ribozyme fitness (log ratio)” value was -2.22.
For C15G G44U, the “polymerase ribozyme fitness (log ratio)” value was -3.71.
In the case of C3U G48U C49G C99U, the “polymerase ribozyme fitness (log ratio)” value is reported as -4.65.
With C11G C12U G42C G69C C115G the “polymerase ribozyme fitness (log ratio)” value was -6.44.
In the case of C20U A27G, the “polymerase ribozyme fitness (log ratio)” value is reported as -3.07.
With A29U C34U A46U U87G the “polymerase ribozyme fitness (log ratio)” value was -5.9.
For U38A A83C U92C C124A, the “polymerase ribozyme fitness (log ratio)” value was -1.34.
In the case of A18G A43C C53A G63U, the “polymerase ribozyme fitness (log ratio)” value is reported as -5.8.
With U7A C64A A95C C101A C123U the “polymerase ribozyme fitness (log ratio)” value was -6.03.
In the case of A46G G63C, the “polymerase ribozyme fitness (log ratio)” value is reported as -1.22.
For C11G C64G, the “polymerase ribozyme fitness (log ratio)” value was -6.21.
With C11U C53U the “polymerase ribozyme fitness (log ratio)” value was 0.00138.
For A2U C8U C11G, the “polymerase ribozyme fitness (log ratio)” value was -0.458.
In the case of A16U U59G, the “polymerase ribozyme fitness (log ratio)” value is reported as -1.3.
With G71A A90G the “polymerase ribozyme fitness (log ratio)” value was -1.65.
For C8A C40U C62A A90C, the “polymerase ribozyme fitness (log ratio)” value was -3.39.
For U32C C102G G113A, the “polymerase ribozyme fitness (log ratio)” value was -7.53.
In the case of G39A C49G G61A C89U C102G, the “polymerase ribozyme fitness (log ratio)” value is reported as -7.76.
For C82G, the “polymerase ribozyme fitness (log ratio)” value was -0.684.
In the case of G36C C49U C101G A119U, the “polymerase ribozyme fitness (log ratio)” value is reported as -3.31.
With A5C U9C C13U the “polymerase ribozyme fitness (log ratio)” value was -0.074.
With C4U C22G G48A C89A C124A the “polymerase ribozyme fitness (log ratio)” value was -3.16.
With G39U U55A G60A the “polymerase ribozyme fitness (log ratio)” value was -0.52.
For C22A C28U, the “polymerase ribozyme fitness (log ratio)” value was -4.42.
In the case of A90C C124U, the “polymerase ribozyme fitness (log ratio)” value is reported as 0.931.
For C76G C89U, the “polymerase ribozyme fitness (log ratio)” value was -0.321.
For U7A A18G C20A G39A C70U U116C G120U C123U C124A, the “polymerase ribozyme fitness (log ratio)” value was -6.7.
With C11U C115A the “polymerase ribozyme fitness (log ratio)” value was -0.908.
With C15G G61U U78C C101A the “polymerase ribozyme fitness (log ratio)” value was -3.49.
For G69U U116G, the “polymerase ribozyme fitness (log ratio)” value was -2.69.
For A29C G93A, the “polymerase ribozyme fitness (log ratio)” value was -3.03.
For G69U U78G U112A, the “polymerase ribozyme fitness (log ratio)” value was 2.31.
For U87A C94A, the “polymerase ribozyme fitness (log ratio)” value was -0.438.
In the case of G48C U78A A111U C123A U129A, the “polymerase ribozyme fitness (log ratio)” value is reported as -6.15.
With C4U G71U C97U C123A the “polymerase ribozyme fitness (log ratio)” value was 0.307.
With G19A C49G C85U A111C the “polymerase ribozyme fitness (log ratio)” value was -2.99.
In the case of C20U G44A G45U, the “polymerase ribozyme fitness (log ratio)” value is reported as -3.42.
In the case of A5G U38G C114A, the “polymerase ribozyme fitness (log ratio)” value is reported as -2.6.
In the case of C79U A105C, the “polymerase ribozyme fitness (log ratio)” value is reported as -1.36.
With C11A G47A G61U A105U U126A the “polymerase ribozyme fitness (log ratio)” value was -5.18.
In the case of C53U A108U, the “polymerase ribozyme fitness (log ratio)” value is reported as -6.86.
With C20U C56G the “polymerase ribozyme fitness (log ratio)” value was -1.53.
With A5C G60U G128A the “polymerase ribozyme fitness (log ratio)” value was -2.44.
For G110U C115A U129C, the “polymerase ribozyme fitness (log ratio)” value was -3.17.
For G63C A111C, the “polymerase ribozyme fitness (log ratio)” value was -0.587.
With G45U C73G the “polymerase ribozyme fitness (log ratio)” value was -0.942.
For C3U C104A, the “polymerase ribozyme fitness (log ratio)” value was -2.21.
With A16U G52U A111C U126G G127U the “polymerase ribozyme fitness (log ratio)” value was -2.8.
In the case of C86A C124G G128A, the “polymerase ribozyme fitness (log ratio)” value is reported as 0.914.
For U78C U106G, the “polymerase ribozyme fitness (log ratio)” value was -1.09.
In the case of U59G U81A, the “polymerase ribozyme fitness (log ratio)” value is reported as -0.876.
For A16C G61C C88U, the “polymerase ribozyme fitness (log ratio)” value was -4.85.
For C3A G45U G61A C88U A90C G113A, the “polymerase ribozyme fitness (log ratio)” value was -3.92.
In the case of C11U G120A U129G, the “polymerase ribozyme fitness (log ratio)” value is reported as -1.66.
For C70G A111U G117U A121U, the “polymerase ribozyme fitness (log ratio)” value was -6.12.
In the case of C12A G52U G57U C64U C72U A105U, the “polymerase ribozyme fitness (log ratio)” value is reported as -3.63.
For C15G A95U U116G, the “polymerase ribozyme fitness (log ratio)” value was -2.63.
